Laboratory results published in patent CN116355095A.

What was measured:
[1] = biological target: T1, CHO-K1-T1001细胞表达的人TIGIT (human) (UniProt Q495A1); experiment: cell ELISA on fixed CHO-K1-T1001 cells; reference Ref1
T1 sequence (looked up): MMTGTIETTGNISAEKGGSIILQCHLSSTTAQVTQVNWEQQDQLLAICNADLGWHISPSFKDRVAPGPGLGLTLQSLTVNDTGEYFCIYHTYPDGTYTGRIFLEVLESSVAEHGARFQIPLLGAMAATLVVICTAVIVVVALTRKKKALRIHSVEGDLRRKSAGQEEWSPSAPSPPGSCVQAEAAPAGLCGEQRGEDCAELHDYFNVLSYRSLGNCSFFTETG

[2] = biological target: 人TIGIT-hFc (human) (UniProt Q495A1); experiment: blocking ELISA: Bio-CD155 on coated TIGIT-hFc; reference Ref1

fold better than Ref1 (结合活性) [1]: 1.73 fold
fold better than Ref1 (阻断活性) [2]: 1.83 fold
B1: IF091 (鼠源单克隆抗体mab22) (antibody, V domains shown)
VH: EVKLVESGGGLVQPGGSLKLSCVASGFTFSSYTMSWVRQTPEKRLELVAEISSSGGSTYYPDTVKGRFTISRDNAKNTLFLQMNSLKSEDTAMYYCARPGLGAWFAYWGQGTLVTVSA
VL: DVLMTQTPLSLPVSLGDQASISCRSSQSIVHNSGNTYLEWYLQKPGQSPKLLIYKVSNRFSGVPDRFSGSGSGTDFTLKISRVEAEDLGIYYCFQFSHVPRTFGGGTKLEIK
